Results as given in patent US20160368985A1.

T1: soluble human FcRH5 protein fragment (human) (UniProt Q96RD9)
T1 sequence: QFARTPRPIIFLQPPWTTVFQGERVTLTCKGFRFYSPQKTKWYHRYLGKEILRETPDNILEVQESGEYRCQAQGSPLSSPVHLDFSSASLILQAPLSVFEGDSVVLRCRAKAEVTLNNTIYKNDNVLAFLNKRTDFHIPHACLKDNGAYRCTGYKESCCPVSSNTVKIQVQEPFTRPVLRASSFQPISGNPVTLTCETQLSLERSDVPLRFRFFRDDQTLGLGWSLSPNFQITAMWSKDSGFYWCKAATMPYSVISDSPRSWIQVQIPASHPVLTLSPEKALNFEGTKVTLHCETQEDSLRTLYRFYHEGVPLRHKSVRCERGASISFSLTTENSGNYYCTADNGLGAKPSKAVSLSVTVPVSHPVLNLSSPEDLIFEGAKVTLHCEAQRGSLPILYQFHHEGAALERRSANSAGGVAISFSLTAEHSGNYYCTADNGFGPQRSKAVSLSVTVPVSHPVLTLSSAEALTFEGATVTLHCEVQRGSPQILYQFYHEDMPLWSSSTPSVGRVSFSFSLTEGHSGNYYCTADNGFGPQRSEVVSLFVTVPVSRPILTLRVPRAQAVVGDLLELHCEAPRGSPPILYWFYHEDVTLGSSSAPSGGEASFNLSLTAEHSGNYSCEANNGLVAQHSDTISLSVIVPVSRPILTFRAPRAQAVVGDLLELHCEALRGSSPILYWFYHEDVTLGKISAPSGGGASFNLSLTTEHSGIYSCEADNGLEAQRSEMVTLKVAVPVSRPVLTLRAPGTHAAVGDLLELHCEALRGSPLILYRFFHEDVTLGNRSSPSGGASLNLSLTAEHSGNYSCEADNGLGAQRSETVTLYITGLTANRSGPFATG

T2: soluble cynomolgus FcRH5 protein fragment (cynomolgus monkey)
T2 sequence: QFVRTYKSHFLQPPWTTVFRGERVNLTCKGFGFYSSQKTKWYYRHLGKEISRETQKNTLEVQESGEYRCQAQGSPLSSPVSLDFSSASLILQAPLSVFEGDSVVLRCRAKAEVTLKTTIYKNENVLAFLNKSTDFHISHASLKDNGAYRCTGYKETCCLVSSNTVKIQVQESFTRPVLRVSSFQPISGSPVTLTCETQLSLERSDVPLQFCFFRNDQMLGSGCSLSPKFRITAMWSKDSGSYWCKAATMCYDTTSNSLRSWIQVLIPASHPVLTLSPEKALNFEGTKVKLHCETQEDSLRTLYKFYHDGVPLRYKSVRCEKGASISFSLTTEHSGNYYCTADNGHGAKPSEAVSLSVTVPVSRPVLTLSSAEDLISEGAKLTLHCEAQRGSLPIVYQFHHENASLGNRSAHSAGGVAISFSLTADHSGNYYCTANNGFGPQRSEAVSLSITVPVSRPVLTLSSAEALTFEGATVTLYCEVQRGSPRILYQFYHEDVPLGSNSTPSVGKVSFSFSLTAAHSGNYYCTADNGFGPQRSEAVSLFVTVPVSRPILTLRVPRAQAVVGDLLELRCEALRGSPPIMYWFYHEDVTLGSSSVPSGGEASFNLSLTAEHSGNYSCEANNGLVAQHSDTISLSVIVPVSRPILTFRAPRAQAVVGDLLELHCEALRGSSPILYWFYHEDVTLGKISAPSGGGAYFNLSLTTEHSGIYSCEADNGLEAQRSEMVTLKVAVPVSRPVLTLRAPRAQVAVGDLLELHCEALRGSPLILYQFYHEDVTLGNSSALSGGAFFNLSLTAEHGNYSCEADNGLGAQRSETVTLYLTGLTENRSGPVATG


Columns and labels:
[1] = molecular target: T1, soluble human FcRH5 protein fragment (human); assay: SPR screening, human IgG capture
[2] = molecular target: T2, soluble cynomolgus FcRH5 protein fragment (cynomolgus monkey); assay: BIACORE
[3] = molecular target: T2, soluble cynomolgus FcRH5 protein fragment (cynomolgus monkey); assay: SPR, human IgG capture, 1:1 model
[4] = molecular target: T2, soluble cynomolgus FcRH5 protein fragment (cynomolgus monkey); assay: BIACORE, hIgG capture, 1:1 model, monovalent

Kd [1] [nM]	Binder	also measured
81	hu1G7.v1 heavy chain W52F + light chain of hu1G7.v1.6 (antibody, part only; not given: hu1G7.v1.6 light chain, V domains shown, part only) VH: EVQLVESGPGLVKPSETLSLTCTVSGFSLTRFGVHWVRQPPGKGLEWLGVIFRGGSTDYNAAFMSRLTISKDNSKNQVSLKLSSVTAADTAVYYCSNHYYGSSDYALDNWGQGTLVTVSS	
2.7	hu1G7.v1 heavy chain M64I + light chain of hu1G7.v1.6 (antibody, part only; not given: hu1G7.v1.6 light chain, V domains shown, part only) VH: EVQLVESGPGLVKPSETLSLTCTVSGFSLTRFGVHWVRQPPGKGLEWLGVIWRGGSTDYNAAFISRLTISKDNSKNQVSLKLSSVTAADTAVYYCSNHYYGSSDYALDNWGQGTLVTVSS	
250	hu1G7.v1 heavy chain W52L + light chain of hu1G7.v1.6 (antibody, part only; not given: hu1G7.v1.6 light chain, V domains shown, part only) VH: EVQLVESGPGLVKPSETLSLTCTVSGFSLTRFGVHWVRQPPGKGLEWLGVILRGGSTDYNAAFMSRLTISKDNSKNQVSLKLSSVTAADTAVYYCSNHYYGSSDYALDNWGQGTLVTVSS	
	hu1G7.v93/38E4.v1 TDB (bispecific antibody, V domains shown) VH 1: EVQLVESGPGLVKPSETLSLTCTVSGFSTTRFGVHWVRQPPGKGLEWLGVIWRGGSTDYNAAFVSRLTISKDNSKNQVSLKLSSVTAADTAVYYCSNHYYGSPDYALDNWGQGTLVTVSS VL 1: DIQMTQSPSSLSASVGDRVTITCKASQDVSNLVVWFQQKPGKAPKLLIYSGSYRYSGVPSRFSGSGSGTDFTLTISSLQPEDFATYYCQQHYSPPYTFGQGTKVEIK VH 2: EVQLVQSGAEVKKPGASVKVSCKASGFTFTSYYIHWVRQAPGQGLEWIGWIYPENDNTKYNEKFKDRVTITADTSTSTAYLELSSLRSEDTAVYYCARDGYSRYYFDYWGQGTLVTVSS VL 2: DIVMTQSPDSLAVSLGERATINCKSSQSLLNSRTRKNYLAWYQQKPGQSPKLLIYWTSTRKSGVPDRFSGSGSGTDFTLTISSLQAEDVAVYYCKQSFILRTFGQGTKVEIK	Kd [2]: 8.1 nM
2.7	hu1G7.v1 heavy chain M64V + light chain of hu1G7.v1.6 (antibody, part only; not given: hu1G7.v1.6 light chain, V domains shown, part only) VH: EVQLVESGPGLVKPSETLSLTCTVSGFSLTRFGVHWVRQPPGKGLEWLGVIWRGGSTDYNAAFVSRLTISKDNSKNQVSLKLSSVTAADTAVYYCSNHYYGSSDYALDNWGQGTLVTVSS	
110	hu1G7.v1 heavy chain W52H + light chain of hu1G7.v1.6 (antibody, part only; not given: hu1G7.v1.6 light chain, V domains shown, part only) VH: EVQLVESGPGLVKPSETLSLTCTVSGFSLTRFGVHWVRQPPGKGLEWLGVIHRGGSTDYNAAFMSRLTISKDNSKNQVSLKLSSVTAADTAVYYCSNHYYGSSDYALDNWGQGTLVTVSS	
	hu1G7.v85/38E4.v1 TDB (bispecific antibody, V domains shown) VH 1: EVQLVESGPGLVKPSETLSLTCTVSGFSLTRFGVHWVRQPPGKGLEWLGVIWRGGSTDYNAAFVSRLTISKDNSKNQVSLKLSSVTAADTAVYYCSNHYYGSSDYALDNWGQGTLVTVSS VL 1: DIQMTQSPSSLSASVGDRVTITCKASQDVRNLVVWFQQKPGKAPKLLIYSGSYRYSGVPSRFSGSGSGTDFTLTISSLQPEDFATYYCQQHYSPPYTFGQGTKVEIK VH 2: EVQLVQSGAEVKKPGASVKVSCKASGFTFTSYYIHWVRQAPGQGLEWIGWIYPENDNTKYNEKFKDRVTITADTSTSTAYLELSSLRSEDTAVYYCARDGYSRYYFDYWGQGTLVTVSS VL 2: DIVMTQSPDSLAVSLGERATINCKSSQSLLNSRTRKNYLAWYQQKPGQSPKLLIYWTSTRKSGVPDRFSGSGSGTDFTLTISSLQAEDVAVYYCKQSFILRTFGQGTKVEIK	Kd [2]: 7.8 nM; Kd [3]: 6.8 nM; koff [3]: 0.0008 s⁻¹; kon [3]: 100000 M⁻¹ s⁻¹; Kd [4]: 6.76 nM
530	hu1G7.v1 heavy chain W52Y + light chain of hu1G7.v1.6 (antibody, part only; not given: hu1G7.v1.6 light chain, V domains shown, part only) VH: EVQLVESGPGLVKPSETLSLTCTVSGFSLTRFGVHWVRQPPGKGLEWLGVIYRGGSTDYNAAFMSRLTISKDNSKNQVSLKLSSVTAADTAVYYCSNHYYGSSDYALDNWGQGTLVTVSS	
2.6	hu1G7.v1 heavy chain M64F + light chain of hu1G7.v1.6 (antibody, part only; not given: hu1G7.v1.6 light chain, V domains shown, part only) VH: EVQLVESGPGLVKPSETLSLTCTVSGFSLTRFGVHWVRQPPGKGLEWLGVIWRGGSTDYNAAFFSRLTISKDNSKNQVSLKLSSVTAADTAVYYCSNHYYGSSDYALDNWGQGTLVTVSS	
